Experimental data published in PMC10397247.

Experiments:
4H2898-AA = molecular target: T1, 4H2898-AA; experiment: two-hybrid library CCmax; conditions: mean of both orientations;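 also: natural log of median RNA to DNA barcode read ratio; higher means stronger binding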
T1 chain: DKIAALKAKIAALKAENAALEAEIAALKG

4H_GCN4 = experiment: two-hybrid library CCmax;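 also: natural log of median RNA to DNA barcode read ratio; higher means stronger binding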
4H535-AA = molecular target: T2, 4H535-AA; experiment: two-hybrid library CCmax; conditions: mean of both orientations;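 also: natural log of median RNA to DNA barcode read ratio; higher means stronger binding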
T2 chain: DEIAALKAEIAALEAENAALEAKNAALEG

4H3365-AA = molecular target: T3, 4H3365-AA; experiment: two-hybrid library CCmax; conditions: mean of both orientations;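 also: natural log of median RNA to DNA barcode read ratio; higher means stronger binding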
T3 chain: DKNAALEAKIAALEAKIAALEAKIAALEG

4H486-AA = molecular target: T4, 4H486-AA; experiment: two-hybrid library CCmax; conditions: mean of both orientations;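 also: natural log of median RNA to DNA barcode read ratio; higher means stronger binding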
T4 chain: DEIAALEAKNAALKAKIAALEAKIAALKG

4H3020-AA = molecular target: T5, 4H3020-AA; experiment: two-hybrid library CCmax; conditions: mean of both orientations;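 also: natural log of median RNA to DNA barcode read ratio; higher means stronger binding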
T5 chain: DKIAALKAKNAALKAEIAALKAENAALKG

4H58-AA = molecular target: T6, 4H58-AA; experiment: two-hybrid library CCmax; conditions: mean of both orientations
T6 chain: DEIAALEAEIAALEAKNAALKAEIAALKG

4H2750-AA = molecular target: T7, 4H2750-AA; experiment: two-hybrid library CCmax; conditions: mean of both orientations
T7 chain: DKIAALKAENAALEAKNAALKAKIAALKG

4H3782-AA = molecular target: T8, 4H3782-AA; experiment: two-hybrid library CCmax; conditions: mean of both orientations
T8 chain: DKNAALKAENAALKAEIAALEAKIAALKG

4H355-AA = molecular target: T9, 4H355-AA; experiment: two-hybrid library CCmax; conditions: mean of both orientations
T9 chain: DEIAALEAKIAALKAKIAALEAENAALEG

4H_BCR = molecular target: T10, 4H_BCR; experiment: two-hybrid library CCmax; conditions: mean of both orientations
T10 chain: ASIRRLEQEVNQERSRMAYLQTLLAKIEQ

4H2721-AA = molecular target: T11, 4H2721-AA; experiment: two-hybrid library CCmax
T11 chain: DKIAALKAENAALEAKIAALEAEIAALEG

4H895-AA = molecular target: T12, 4H895-AA; experiment: two-hybrid library CCmax; conditions: mean of both orientations
T12 chain: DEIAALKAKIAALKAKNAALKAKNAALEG

GCN2_T = experiment: two-hybrid library CCmax; conditions: mean of both orientations
4H3705-AA = molecular target: T13, 4H3705-AA; experiment: two-hybrid library CCmax; conditions: mean of both orientations
T13 chain: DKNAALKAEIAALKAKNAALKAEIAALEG

4H_APH = molecular target: T14, 4H_APH; experiment: two-hybrid library CCmax; conditions: mean of both orientations
T14 chain: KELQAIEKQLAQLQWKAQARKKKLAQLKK

4H3651-AA = molecular target: T15, 4H3651-AA; experiment: two-hybrid library CCmax; conditions: mean of both orientations
T15 chain: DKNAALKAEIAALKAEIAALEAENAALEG

4H465-AA = molecular target: T16, 4H465-AA; experiment: two-hybrid library CCmax; conditions: mean of both orientations
T16 chain: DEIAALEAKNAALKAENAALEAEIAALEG

P9A-bA = molecular target: T17, P9A-bA; experiment: two-hybrid library CCNG1
T17 chain: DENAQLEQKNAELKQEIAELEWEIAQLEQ

P5A-bA = molecular target: T18, P5A-bA; experiment: two-hybrid library CCNG1
T18 chain: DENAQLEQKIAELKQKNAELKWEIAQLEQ

P4A-bA = molecular target: T19, P4A-bA; experiment: two-hybrid library CCNG1
T19 chain: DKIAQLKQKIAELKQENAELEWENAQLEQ

P7A-bA = molecular target: T20, P7A-bA; experiment: two-hybrid library CCNG1
T20 chain: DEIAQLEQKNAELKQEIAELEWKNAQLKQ

P8A-bA = molecular target: T21, P8A-bA; experiment: two-hybrid library CCNG1
T21 chain: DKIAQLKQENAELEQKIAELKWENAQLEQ

P6A-bA = molecular target: T22, P6A-bA; experiment: two-hybrid library CCNG1
T22 chain: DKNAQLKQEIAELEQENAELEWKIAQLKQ

4H_GCN4, sequence (chain, as listed by the source): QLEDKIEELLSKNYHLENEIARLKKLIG

Binder: DKIAALKAENAALEAKIAALEAEIAALEG [4H2721-AA]
- interaction score (4H2898-AA): 0.892
- interaction score (4H_GCN4): -1.31
- interaction score (4H535-AA): -1.55
- interaction score (4H3365-AA): -1.58
- interaction score (4H486-AA): 2.11
- interaction score (4H3020-AA): -1.05
- interaction score (4H58-AA): 0.0667
- interaction score (4H2750-AA): 0.408
- interaction score (4H3782-AA): 1.73
- interaction score (4H355-AA): -0.56
- interaction score (4H_BCR): -1.38
- interaction score (4H2721-AA): 0.879
- interaction score (4H895-AA): -1.62
- interaction score (GCN2_T): -0.835
- interaction score (4H3705-AA): 1.59
- interaction score (4H_APH): -2.01
- interaction score (4H3651-AA): -1.51
- interaction score (4H465-AA): -0.696

Binder: DKIAQLKQKIAELKQENAELEWENAQLEQ [P4A-bA]
- interaction score (P9A-bA): -0.899
- interaction score (P5A-bA): -1.23
- interaction score (P4A-bA): -0.883
- interaction score (P7A-bA): -1.25
- interaction score (P8A-bA): -0.955
- interaction score (P6A-bA): -2.07
